Tested on: HNRNPH1 isoform A (Homo sapiens)
Assay: MST
Details: 50 mM Tris pH 8.0, 300 mM KCl, 0.02% NP-40, 10% glycerol, 0.5 mg/ml heparin, 22 C; 20 nM RNA

Question: Which Kd does the source give for INCA1 major eCLIP peak 50-nt RNA oligo here?
Answer: Its Kd is 0.762 µM.

From US20210380978
